One protein from patent US6649364 can be followed below.

Data set [1] concerns the target DNase I (Sigma, St. Louis, Mo.).
Data set [2] has as its target α-actin purified from rabbit skeletal muscle, globular (G-actin) form, P68135.

B1: highly purified human recombinant ICE (p20/p10) (Merck) (protein)
chain 1: NPAMPTSSGSEGNVKLCSLEEAQRIWKQKSAEIYPIMDKSSRTRLALIICNEEFDSIPRRTGAEVDITGMTMLLQNLGYSVDVKKNLTASDMTTELEAFAHRPEHKTSDSTFLVFMSHGIREGICGKKHSEQVPDILQLNAIFNMLNTKNCPSLKDKPKVIIIQACRGDSPGVVWFKD
chain 2: AIKKAHIEKDFIAFCSSTPDNVSWRHPTMGSVFIGRLIEHMQEYACSCDVEEIFRKVRFSFEQPDGRAQMPTTERVTLTRCFYLFPGH
Take B1: the “cleavage of DNase I and its endonuclease activity” value in data set [1] is “Control incubations without actin demonstrated that ICE neither cleaved DNase I nor affected its endonuclease activity”. Also, the “cleavage of purified actin (SDS-polyacrylamide gel electrophoresis)” value in data set [2] was “In the presence of ICE, actin was cleaved, resulting in a disappearance of the 42 kd band, and the appearance of bands at approximately 41 kd, 30 kd, and 14 kd”.
